Measured values as given in the nanobody polyreactivity screen of Harvey et al. (2022).

assay: yeast display, Sf9 membrane polyspecificity reagent, FACS + sequencing; frameworks hold sequencing errors
Summary of the method: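 Synthetic nanobody libraries on Saccharomyces cerevisiae BJ5465 were galactose-induced for 36–48 hours, stained 1 hour at 4 °C with 10% biotinylated, detergent-solubilized Sf9 membrane reagent and enriched on streptavidin microbeads. FACS then separated cells into low and high (top ~1%) gates by anti-HA (expression) and streptavidin (reagent binding) fluorescence. Genes were colony-PCR amplified, MiSeq 2 × 250 sequenced and CDR-length filtered. A clone's polyreactivity label is that of its gate of origin.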

Sequence | polyreactivity (PSR sort gate)
QVQLVESGGGLVQAGGSLRLSCAASGRIFARYAMGWYRQAPGKERELVAAISFRGGSTYYADSVKGRFTISRDNAKNTVYLQMNSLKPEDTAVYYCAARFGGWDRGLDYWGQGTQVTVSS | high polyreactivity
QVQLVESGGGLVQAGGSLRLSCAASGRIFARYAMGWYRQAPGKERELVAAISFRGGSTYYADSVKGRFTISRDNAKNTVYLQMNSQKPEDTAVYYCNGRYGRGGYDYWGQGTQVTVSS | high polyreactivity
QVQLVESGGGLVQAGGSLRLSCAASGRIFARYAMGWYRQAPGKERELVAAISFRGGSTYYADSVKGRFTISRDNAQNTVYLPMNSLKPEDTAVYYCNARYGRGGYDYWGQGTQVSVSS | high polyreactivity
QVQLVESGGGLVQAGGSLRLSCAASGRIFARYAMGWYRQAPGKERELVAAITTSGDSTYYADSVKGRFTISRDNAKNTVYLQMNSLKPEDTAVYYCAAERRYGRYYRLVRLLGQGTQVTVSS | high polyreactivity
QVQLVESGGGLVQAGGSLRLSCAASGRIFASYAMGWYRQAPGKERELVAAISLRGGSTYYADSVKGRFTISRDNAKNTVYLQMNSLKPEDTAVYYCAAYHPHGFDYYRYYYWGQGTQVTVSS | high polyreactivity
QVQLVESGGGLVQAGGSLRLSCAASGRIFASYAMGWYRQAPGKERELVAAISLSGGSTYYADSVKGRFTISRDIAKNTVYLQMNSLKPEDTAVYYCAAKNYRRYRDYYWGQGTQVTVSS | high polyreactivity
QVQLVESGGGLVQAGGSLRLSCAASGRIFASYAMGWYRQAPGKERELVAAISWSGGSTNYADSVKGRFTISRDNAKNTVYLQMNRLKPEDTAVYYCAKKKRRGYGYDYWGQGTQVTVSS | high polyreactivity
QVQLVESGGGLVQAGGSLRLSCAASGRIFASYAMGWYRQAPGKERELVASISWGGGSRTYADSVKGRFTISRDNAKNTVYLQMNSLKPEDTAVYYCAADVHYTFGMDYWGQGTQVTVSS | high polyreactivity
QVQLVESGGGLVQAGGSLRLSCAASGRIFATNAMGLYRQAPGKERELVATITRSAGRTYYADSVKGRFTISRDNAKNTVYLQMNSLKPEDTAVYYCAASYWDTEPGYREYDYWGQGTQVTVSS | low polyreactivity
QVQLVESGGGLVQAGGSLRLSCAASGRIFATNAMGWSRPAPGTERELVAGISDGGGSTYYAASVKGRFTISRDNAKNTVYLQMNRLKPEDTEVYYCAARVLDWRGDIHDSEYWGQGTQVTVSS | low polyreactivity
QVQLVESGGGLVQAGGSLRLSCAASGRIFATNARGWYRQAPGKERELVAVISSGGSTNYADSVKGRFTISRDNAKNTVYLQMNSLKPEDTAVYYCAASPGSRPTQPYDYWGQGTQVTVSS | low polyreactivity
QVQLVESGGGLVQAGGSLRLSCAASGRIFATYAMGWYRQAPGKERELVARITFTSGSTYYADSVKGRFTISRDNAKNTVYLQMNSLKPEDTAVYYCAAPWSVTRTSFDYWGQGTQVTVSS | high polyreactivity
QVQLVESGGGLVQAGGSLRLSCAASGRIFAVNAMGWYRQAPGKERELVAAINGGGSTNYADSVKGRFTISRDNAKNTVYLQMNSLKPEDTAVYYCAADVGWRSQTRGYYWGQGTQVTVSS | high polyreactivity
QVQLVESGGGLVQAGGSLRLSCAASGRIFAVYAMGWYRQAPGKEREFVAAISYSGGITYYADSVKGRFTISRDNAKNTVYLQMNSLIPEDTAVYYCNAYYYFWGQGTQVTVSS | low polyreactivity
QVQLVESGGGLVQAGGSLRLSCAASGRIFAVYVMGWYRQAPGKERELVAAISQSGGRTYYADSVKGRFTISRDNAKNTVYLQMNSLITEDTAVYYCNTVTSRATNFSGLGYWGQGTQVTVSS | high polyreactivity
QVQLVESGGGLVQAGGSLRLSCAASGRIFAWYAMGWYRQAPGKERELVAGISWIGGSTYYADSVKGRFTISRDNAKNTVYLQMNSLKPEDTAVYYCNARKKPGSRLDIIGYDYWGQGTQVTVSS | low polyreactivity
QVQLVESGGGLVQAGGSLRLSCAASGRIFAWYSMGWYRQAPGEERELVAGISWICGSTYNADSVKGRFTISRDNAKNTVYLQMNSLKPEDTAVYYCNARKKPGSLLDIIGYDYWGQGTQVTVSS | low polyreactivity
QVQLVESGGGLVQAGGSLRLSCAASGRIFAWYVMGWYRQAPGKEREFVAAIRWRSGSTHYADSVKGRFTISRDNAKNTVYLQMNSLKPEDTAVYYCARDVHGLLDYWGQGTQVTVSS | high polyreactivity
QVQLVESGGGLVQAGGSLRLSCAASGRIFAYNAMGWYRQAPGKERELVAAITRSGGSTYYADSVKGRFTISRDNAKNTVYLQMNSLKPEDTAVYYCAKRYSYYIDDYWGQGTQVTVSS | low polyreactivity
QVQLVESGGGLVQAGGSLRLSCAASGRIFAYYAMGWYRPAPGIERELVATIRGGGSTNYADSVKGRFTISRDNAKNTVYLQMNSLKPEATAVYYCAKPGAKWRGFDYWGLGTQVTVSS | low polyreactivity
QVQLVESGGGLVQAGGSLRLSCAASGRIFAYYAMGWYRQAPGKDRELVATIRSGGDTNYADSVKGRFTISRDNAKNTVDIQMNSLKTEDTAVYYCNALYYWWYPHEYNYWGQGTQVTVSS | low polyreactivity
QVQLVESGGGLVQAGGSLRLSCAASGRIFAYYAMGWYRQAPGKEREFLATITGRGGSTSYADSVKGRFTISRDNAKNTVYLQMNSLKPEDTAVYYCAKRVVVWYFGTGDYWVQGTQVTVSS | low polyreactivity

Sequence | polyreactivity (PSR sort gate)
QVQLVESGGGLVQAGGSLRLSCAASGRIFAYYAMGWYRQAPGKERELVAAITTNGGGTYYADSVKGRFTISRDNAKNTVYLQMNSLKPEDTAVYYCNAVKQRSSIFDYWGQGTQVTVSS | low polyreactivity
QVQLVESGGGLVQAGGSLRLSCAASGRIFAYYAMGWYRQAPGKERELVAAITWRGGRTYYADSVKGRFTISRDNAKTTVYLQMNSLKPEDTAVYYCAARGYYSTYKLATDDYWGQGTQVTVSS | high polyreactivity
QVQLVESGGGLVQAGGSLRLSCAASGRIFAYYAMGWYRQAPGKERELVASISSSGVSTYYADSVKGRFTISRDNAKNTVYLQMNSLKPEDTAVYYCAARQFSWDSQRYRHRYDYWGQGTQVTVSS | high polyreactivity
QVQLVESGGGLVQAGGSLRLSCAASGRIFAYYAMGWYRQAPGKERELVATIRSGGDTNYADSVKGRFTISRDNAKNTVYLQMNSLKPEDTAVYYCNALYDWWYPHEYNYWGQVTQVTVSS | low polyreactivity
QVQLVESGGGLVQAGGSLRLSCAASGRIFAYYAMGWYRQAPGTERELVAAITRRSGGITYYADSVKGRFTISRDNAKNTVYLQMNSLKPEDTAVYYCAARYRLSGKYRFTYDYWGQGTQVTVSS | high polyreactivity
QVQLVESGGGLVQAGGSLRLSCAASGRIFAYYPMGWYRPAPGKERELVAAISRSGVSTYYADSVKGRFTISRDNAKNTVYLQMNSLKPEDTAVYYCAARWRSGFTSGDYWGQGTQVTVSS | low polyreactivity
QVQLVESGGGLVQAGGSLRLSCAASGRIFAYYSMGWYRQAPGKERELVAAISRSGVSTYYADSVKGRFTISRDNAKNTVYLLMNSLKPEDTAVYYCAARWRSGFTSGDFWGQGTQVTVSS | low polyreactivity
QVQLVESGGGLVQAGGSLRLSCAASGRIFAYYTMGWYRQAPGKERELVATISGSGASTYYADSVKGRFTISRDNAKNTDYLQMNSLKPEDTAVYYCAATRFYATIYDYWGQGTQVTVSS | high polyreactivity
QVQLVESGGGLVQAGGSLRLSCAASGRIFAYYVMGWYRQAPGKERELVAVISGSGSSTYYADSVKGRFTISRDNAKNTVYLQMNSLKPEDTAVYYCAASIQLYRSFITREYWGQGTQVSVSS | high polyreactivity
QVQLVESGGGLVQAGGSLRLSCAASGRIFDANAMGWYRQAPGKERELVAAITSSGGRTYYADSVKGRFTISRDNAKNTVYLQMNSLKPEDTAVYYCARAGRSWDTLYKYYLEHDYWGQGTQVTVSS | low polyreactivity
QVQLVESGGGLVQAGGSLRLSCAASGRIFDCYAMGWYRQAPRKEREFVASISRRGGSTYYADSVKGRFTISRDNAKNTVYLQMNSLKPEDTAVYYCAADAFFRLDYYYWGQGTQVTVSS | high polyreactivity
QVQLVESGGGLVQAGGSLRLSCAASGRIFDDNTMGWYRQAPGKERELVAVITSGGSTNYADSVKGRFTISRDNAKNTVYLQMNSLKPVDTAVYYCATEPGGYRFDDRAFQYGYWGQGTQVTVSS | low polyreactivity
QVQLVESGGGLVQAGGSLRLSCAASGRIFDDYAMGRYRQAPGKERELVAAISWSGGSTYYADSVKGRFTISRDNAKNTVYLQMNSQKPVDTAVYYCSAPYHSYKRIGYDYWGQGTQVSVSS | low polyreactivity
QVQLVESGGGLVQAGGSLRLSCAASGRIFDDYAMGWYRQAPGKERELVAAISSSGGSTYYADSVKGRFTISRDNAKNTVYLQMNSLKPEDTAVYYCARYPPGRRRYEYWGQGTQVTVSS | high polyreactivity
QVQLVESGGGLVQAGGSLRLSCAASGRIFDFNPMGWYRQAPGKEREVVAAISSGGRTKYADSVKGRFTISRDNAKNTVYLQMNSLKPEDTAVYYCAASGSQPDDYWGQGTQVTVSS | high polyreactivity
QVQLVESGGGLVQAGGSLRLSCAASGRIFDHYAMGWYRQAPGKERELVAAITRSGGITYYADSVKGRFTISRDNAKNTVYLQMNSLKPEDTAVYSCAALSYRYTDKFDYWGQGTQVTVSS | low polyreactivity
QVQLVESGGGLVQAGGSLRLSCAASGRIFDHYARGWYRQAPGKERELVAAINSGGTTNYADSVKGRFTISRDNAKNTVYLQMNSLKPEDTAVYYCAARPRKGQYYFGGNYWGQGTQVTVSS | low polyreactivity
QVQLVESGGGLVQAGGSLRLSCAASGRIFDHYTLGWYRQAPGKERDFVAAISSSGGSTYYADSVKGRFTSSRDTAKNTVYLQLNSLKPEDTAVYDCAAVYHRLWGYDYWGQGPQVTVSS | high polyreactivity
QVQLVESGGGLVQAGGSLRLSCAASGRIFDIYAMGWYRQAPGKERELVAGITSVGSTNYADSVKGRFTISRDNAKNTVYLQMNSLKPEDTAVYYCAKDYLKSAAPSPQGLTHYEYWGQGTQVTVSS | low polyreactivity
QVQLVESGGGLVQAGGSLRLSCAASGRIFDKYTMGWYRQAPGKERELVATITRGGVSMYYADSVKGRFTISRDNAKNTVYLQMNSLKPEDTAVYYCNAVWRLRVRYGYWGQGTQVTVSA | high polyreactivity
QVQLVESGGGLVQAGGSLRLSCAASGRIFDLNAMGWYRQAPGKERELVAAITWSGDSTYYADSVKGRFTISRDNAKNTVYLQMNSLNPEDTAVYYCAAASRTSYSWVDYEFDYWGQGTQVTVSS | low polyreactivity
